The values below come from patent US20200123268A1 (UNIVERSIT DEGLI STUDI MAGNA GRAECIA CATANZARO, published 2020).

Experiment [1] deals with T1, CD43 #6 (CD43 with deletion of aa 64 to 78), expressed in HEK293T cells (human, UniProt P16150 20-400).
T1 construct: also called CD43 Clone #6; not shown: His tag from the vector pLenti-CMV-(insert)-Histag-GFP-2A-Puro
T1 sequence: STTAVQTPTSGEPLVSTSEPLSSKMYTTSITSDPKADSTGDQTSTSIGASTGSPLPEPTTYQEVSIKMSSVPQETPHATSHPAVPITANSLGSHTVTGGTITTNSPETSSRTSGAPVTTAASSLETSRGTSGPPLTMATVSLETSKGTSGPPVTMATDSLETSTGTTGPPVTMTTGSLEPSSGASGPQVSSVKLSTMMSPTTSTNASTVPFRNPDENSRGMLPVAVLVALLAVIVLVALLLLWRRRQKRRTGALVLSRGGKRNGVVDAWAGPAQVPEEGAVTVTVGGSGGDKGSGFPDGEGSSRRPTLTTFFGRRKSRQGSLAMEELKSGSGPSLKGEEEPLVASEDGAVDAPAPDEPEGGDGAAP
Description: western blot of lysates of transfected HEK293T cells.

The target in experiment [2] is T2, recombinant human CD43 extracellular portion (aa 20-253) produced in E. coli (human, UniProt P16150 20-253).
T2 construct: Made in E. coli, without mammalian glycosylation; No tags are stated; also called aglycosylated extracellular portion of CD43; unglycosylated-CD43 protein
T2 sequence: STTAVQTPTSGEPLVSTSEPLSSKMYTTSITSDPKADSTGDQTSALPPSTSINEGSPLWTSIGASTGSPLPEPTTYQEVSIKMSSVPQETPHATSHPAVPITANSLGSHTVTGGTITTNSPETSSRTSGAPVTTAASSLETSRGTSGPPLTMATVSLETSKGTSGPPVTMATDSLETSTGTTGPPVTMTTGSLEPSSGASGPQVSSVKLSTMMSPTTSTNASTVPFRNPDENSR
Put plainly: SPRi (PlexArray HT), antibody printed on the chip, Recombinant Human CD-43 (AA20-253) as analyte at 2.84 to 45.6 nM, 25 C.
Description: (§1) Antibodies dissolved in water were manually printed onto the bare gold-coated (thickness 47 nm) PlexArray Nanocapture Sensor Chip (Plexera Bioscience, Seattle, Wash., US) at 40% humidity. Different concentration of the analytes (CD43) were tested for affinity. Each concentration was printed in replicate, and each spot contained 0.2 uL of sample solution. The chip was incubated in 80% humidity at 4° C. for overnight, and rinsed with 10×PBST for 10 min, 1×PBST for 10 min, and deionized water twice for 10 min. The chip was then blocked with 5% (w/v) non-fat milk in water overnight, and washed with 10×PBST for 10 min, lx PBST for 10 min, and deionized water twice for 10 min before being dried under a stream of nitrogen prior to use. SPRi measurements were performed with PlexAray HT (Plexera Bioscience, Seattle, Wash., US). Collimated light (660 nm) passes through the coupling prism, reflects off the SPR-active gold surface, and is received by the CCD camera. […] The signal changes after binding and washing (in AU) are recorded as the assay value.
(§2) Selected protein-grafted regions in the SPR images were analyzed, and the average reflectivity variations of the chosen areas were plotted as a function of time. Real-time binding signals were recorded and analyzed by Data Analysis Module (DAM, Plexera Bioscience, Seattle, Wash., US). […]

The target of experiment [3] is T3, human CD43, endogenous, on primary cells and cell lines that carry the UMG1 epitope (human, UniProt P16150 20-400, native glycosylation of the cell concerned).
T3 construct: also called UMG1 antigen; the target
T3 sequence: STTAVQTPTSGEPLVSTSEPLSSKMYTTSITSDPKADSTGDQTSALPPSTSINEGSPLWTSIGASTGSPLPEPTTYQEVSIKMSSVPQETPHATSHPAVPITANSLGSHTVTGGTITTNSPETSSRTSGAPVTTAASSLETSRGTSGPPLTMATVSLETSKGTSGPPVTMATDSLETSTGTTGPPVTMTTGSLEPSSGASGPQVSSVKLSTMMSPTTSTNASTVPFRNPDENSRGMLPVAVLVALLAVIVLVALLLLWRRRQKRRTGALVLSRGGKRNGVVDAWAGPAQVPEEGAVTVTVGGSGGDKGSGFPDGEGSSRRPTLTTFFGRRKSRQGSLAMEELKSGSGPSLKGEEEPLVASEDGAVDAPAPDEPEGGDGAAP
Put plainly: competition flow cytometry on HPB-ALL cells against 1 ug/ml h-UMG1-PE.
Description: (§3) Approximately, 500,000 cells were collected and stained for each test. Cell were analyzed and measured with FACS Canto (Becton Dickinson) and analyzed by DIVA software (BD FACSDiva™ software). For each measurement 10,000 events were gated using the DIVA software. Each experiment was performed in triplicate.

Experiment [4] has as its target T2, recombinant human CD43 extracellular …. Put plainly: SPRi (PlexArray HT), antibody printed on the chip, CD43 aa 20-253 from E. coli as analyte, 25 C.
Description: as §1, §2
Experiment [5] deals with T3, human CD43, endogenous, on primary …. Put plainly: competition flow cytometry on CEM cells against 1 ug/ml h-UMG1-PE.
Description: as §3
Experiment [6] has as its target T4, CD43 #5 (truncated CD43, aa 91-400), expressed in HEK293T cells (human, UniProt P16150 91-400).
T4 construct: also called CD43 Clone #5; not shown: His tag from the vector pLenti-CMV-(insert)-Histag-GFP-2A-Puro
T4 sequence: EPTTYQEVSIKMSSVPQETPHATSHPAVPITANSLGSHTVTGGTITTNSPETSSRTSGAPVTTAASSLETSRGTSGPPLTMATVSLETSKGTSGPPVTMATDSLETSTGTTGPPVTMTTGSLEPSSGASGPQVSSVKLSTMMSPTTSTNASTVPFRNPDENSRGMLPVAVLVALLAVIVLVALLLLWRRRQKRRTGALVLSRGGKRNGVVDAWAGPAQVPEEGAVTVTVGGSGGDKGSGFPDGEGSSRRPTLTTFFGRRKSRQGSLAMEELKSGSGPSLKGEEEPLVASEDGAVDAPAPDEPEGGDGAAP
Put plainly: western blot of lysates of transfected HEK293T cells.

For experiment [7], the target named is T5, CD43 #7 (CD43 with deletion of aa 69), expressed in HEK293T cells (human, UniProt P16150 20-400).
T5 construct: also called CD43 Clone #7; not shown: His tag from the vector pLenti-CMV-(insert)-Histag-GFP-2A-Puro
T5 sequence: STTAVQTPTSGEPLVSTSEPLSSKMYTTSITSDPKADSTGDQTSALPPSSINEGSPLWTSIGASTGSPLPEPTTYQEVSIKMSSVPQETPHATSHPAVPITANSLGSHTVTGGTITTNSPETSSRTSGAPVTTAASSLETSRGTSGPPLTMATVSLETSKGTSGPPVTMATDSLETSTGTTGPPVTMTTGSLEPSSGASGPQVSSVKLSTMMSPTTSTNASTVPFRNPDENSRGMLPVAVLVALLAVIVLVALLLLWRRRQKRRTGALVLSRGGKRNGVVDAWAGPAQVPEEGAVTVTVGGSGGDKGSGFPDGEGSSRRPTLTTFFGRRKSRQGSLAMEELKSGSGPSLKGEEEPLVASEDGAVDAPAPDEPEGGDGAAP
Put plainly: flow cytometry on transfected HEK293T cells, 1 ug/ml h-UMG1-PE, percent positive among GFP positive cells.

For experiment [8], the target named is T6, CD43 #8 (CD43 aa 1-400 with T69N), expressed in HEK293T cells (human, UniProt P16150 20-400).
T6 construct: also called CD43 Clone #8; not shown: His tag from the vector pLenti-CMV-(insert)-Histag-GFP-2A-Puro
T6 sequence: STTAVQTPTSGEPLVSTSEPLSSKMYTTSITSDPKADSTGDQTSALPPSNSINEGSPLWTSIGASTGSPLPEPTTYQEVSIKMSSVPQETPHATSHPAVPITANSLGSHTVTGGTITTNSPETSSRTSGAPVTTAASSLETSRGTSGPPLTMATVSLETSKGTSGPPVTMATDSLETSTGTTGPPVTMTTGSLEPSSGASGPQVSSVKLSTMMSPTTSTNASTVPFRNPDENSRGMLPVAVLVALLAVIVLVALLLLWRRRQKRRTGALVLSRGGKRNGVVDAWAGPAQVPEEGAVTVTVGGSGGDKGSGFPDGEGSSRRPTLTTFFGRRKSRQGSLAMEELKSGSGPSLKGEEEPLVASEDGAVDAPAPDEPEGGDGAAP
Described as above.

The target of experiment [9] is T1, CD43 #6 (CD43 with deletion of aa 64 to …). Description: flow cytometry on transfected HEK293T cells, percent h-UMG1-PE positive among GFP positive cells.
Description: (§4) Each vector was transiently expressed in HEK293T cells by using Lipofectamine LTX (Thermo Fisher Scientific, MA, USA) according to the manufacturer's protocol. HEK293T cells were maintained at 37° C. and 5% CO₂ in DMEM supplemented with 10% FBS and 1% penicillin/streptomycin (ThermoFisher Scientific, MA, USA). 72 h after transfection, cells were subjected to western blot or flow cytometry (FACS) analysis.
(§5) Samples were acquired by flow cytometry (LSRFortessa™ X-20, BD) and analyzed by DIVA software (BD FACSDiva™ software). A minimum of 20,000 events were gated for each measurement.
Experiment [10] has as its target T4, CD43 #5 (truncated CD43, aa 91-400), …. The experiment is described as above.
Description: as §4, §5

B1: h-UMG1 (humanized UMG1 antibody H3-L4) (antibody, human IgG1, kappa, V domains shown)
VH: EVQLVESGGGLVQPGGSLRLSCVASGFTFSSFGMHWVRQAPGKGLEWVAYISSGSGNFYYVDTVKGRFTISRDNAKNSLYLQMNSLRAEDTAVYYCARSTYYHGSRGAMDYWGQGTLVTVSS
VL: QVVMTQSPAFLSVTPGEKVTITCSASSSVSSMYWYQLKPDQAPKLLIYDTSKMASGVPIRFSGSGSGTDFTFTVSSVEAEDAATYYCQQWSSYPPITFGGGTKVEIKR
notes: The full chains are given as Human Heavy Chain (VH3) and Human Light Chain (VL4); IgG1; also called unconjugated h-UMG1
Turning to B1, the binding result in experiment [1] and in experiment [6] was “no binding (tested: 1:500 dilution)” in each case. In addition, the koff in experiment [2] was determined as 0.000511 s⁻¹. Also, the kon in experiment [2] was 5140 M⁻¹ s⁻¹. Moreover, the “IC50 (read off the curve)” value is approximately 0.4 µg/mL in experiment [3] and approximately 0.04 µg/mL in experiment [5]. The Kd in experiment [4] was 99.4 nM.

B2: h-UMG1-PE (phycoerythrin-conjugated h-UMG1) (antibody, human IgG1, kappa, V domains shown)
VH: EVQLVESGGGLVQPGGSLRLSCVASGFTFSSFGMHWVRQAPGKGLEWVAYISSGSGNFYYVDTVKGRFTISRDNAKNSLYLQMNSLRAEDTAVYYCARSTYYHGSRGAMDYWGQGTLVTVSS
VL: QVVMTQSPAFLSVTPGEKVTITCSASSSVSSMYWYQLKPDQAPKLLIYDTSKMASGVPIRFSGSGSGTDFTFTVSSVEAEDAATYYCQQWSSYPPITFGGGTKVEIKR
modifications: phycoerythrin conjugate, site not stated
notes: also called h-UMG1-PE conjugated antibody
Turning to B2, the binding result in experiment [7] is “binds”; in [8] it was “binds”; in experiment [9], “no binding (tested: 1 ug/ml)”; in [10], “no binding (tested: 1 ug/ml)”.
